This assay addresses T1, PCSK-9 in human serum samples (human, UniProt Q8NBP7 31-692, limits assumed).
T1 construct: Endogenous PCSK-9 in clinical serum of human subjects, detected with a goat anti-human PCSK-9 polyclonal antibody; also called proprotein convertase subtilisin/kexin type 9; serum free PCSK-9
As to the kind of experiment: ELISA, ADI-10087 coated on a microplate, serum PCSK-9 captured, detected with goat anti-human PCSK-9 polyclonal antibody. As for the experimental part: A corresponding TMB substrate of HRP enzyme was then added, the color intensity of the TMB substrate was proportional to the content of PCSK-9, and the concentration of PCSK-9 in clinical serum could be detected by OD values at 450 nm or 620 nm using a microplate reader.

This note sets out measurements from US20220332846A1 (Innovent, published 2022).

T1 sequence (Q8NBP7 31-692 limits assumed): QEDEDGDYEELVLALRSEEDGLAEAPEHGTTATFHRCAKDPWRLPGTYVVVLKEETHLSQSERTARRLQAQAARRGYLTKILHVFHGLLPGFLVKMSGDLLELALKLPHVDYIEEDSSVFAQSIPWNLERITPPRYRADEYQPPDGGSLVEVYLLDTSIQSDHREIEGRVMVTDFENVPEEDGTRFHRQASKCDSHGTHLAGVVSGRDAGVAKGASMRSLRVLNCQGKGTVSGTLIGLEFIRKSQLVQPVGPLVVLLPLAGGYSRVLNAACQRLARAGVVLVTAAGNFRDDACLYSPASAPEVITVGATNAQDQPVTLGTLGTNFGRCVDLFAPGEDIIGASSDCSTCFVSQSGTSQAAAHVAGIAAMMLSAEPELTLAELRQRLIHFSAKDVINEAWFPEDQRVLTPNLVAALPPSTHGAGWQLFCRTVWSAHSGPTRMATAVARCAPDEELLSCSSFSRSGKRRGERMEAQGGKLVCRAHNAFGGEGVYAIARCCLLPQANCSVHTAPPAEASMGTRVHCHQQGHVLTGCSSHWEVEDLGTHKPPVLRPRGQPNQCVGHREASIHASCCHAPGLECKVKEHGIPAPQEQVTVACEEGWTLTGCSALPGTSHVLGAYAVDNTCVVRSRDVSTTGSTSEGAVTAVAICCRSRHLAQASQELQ

B1: ADI-10087 (antibody, V domains shown)
VH: QLQLQESGPGLVKPSETLSLTCTVSGGSISSASYYWSWIRQPPGKGLEWIGSINYRGSTYYNPSLKSRVTISVDTSKNQFSLKLSSVTAADTAVYYCARENSGVVPAAGPNWFGPWGQGTLVTVSS
VL: EIVLTQSPATLSLSPGERATLSCRASQSVSSYLAWYQQKPGQAPRLLIYDASNRATGIPARFSGSGSGTDFTLTISSLEPEDFAVYYCQQRRNWFTFGGGTKVEIKR
modifications: In Example 10 the antibody carries a ruthenium label, and in Example 9 biotin and ruthenium labels. The labelling sites are not stated and the letters do not carry them.
notes: The antibody was obtained from PCT/CN2017/118050; also called anti-PCSK9 antibody; test drug
Consider B1, for which the binding result is given as “binds”.
